Data taken from patent US20250326848A1 (SHANGHAI HENLIUS BIOTECH, published 2025).

What was measured:
[1] = molecular target: T1, human CD47 on primary human platelets (human, UniProt Q08722 19-323); test: FACS, binding to primary human platelets, donor 2
T1 construct: whole, on cells

[2] = molecular target: T1, human CD47 on primary human platelets; test: FACS, binding to primary human platelets, donor1

EC50 (read off the curve) [1]: ~0.3 nM
EC50 (read off the curve) [2]: ~0.7 nM
B1: M1 #21, anti-CD47 antibody (WO2022063316A1) (antibody, V domains shown)
VH: QVQLQQWGAGLLKPSETLSLTCAVYGGSFSGYYWSWIRQPPGKGLEWIGEINQSGSTNYNPSLKSRVTISVDTSKNQFSLRLSSVTAADTAMYYCARFTGRPYYGMDVWGQGTTVTVSS
VL: SYELTQPPSVSATPGQRVTISCSGSESNIGSHKVKWYQQFAGAAPRLLIHGNDQRFSGVPDRFSGSKSGTSASLAISGLQSEDEADYYCAAWDDSLYGRVFGGGTKLTVL
